Literature values as cited in publication PMC8348223.

How the values were obtained:
[1] = target: Bax (UniProt Q07812)
[2] = target: Bcl-XL (UniProt Q07817)
Chain of Bcl-XL (Q07817 whole entry): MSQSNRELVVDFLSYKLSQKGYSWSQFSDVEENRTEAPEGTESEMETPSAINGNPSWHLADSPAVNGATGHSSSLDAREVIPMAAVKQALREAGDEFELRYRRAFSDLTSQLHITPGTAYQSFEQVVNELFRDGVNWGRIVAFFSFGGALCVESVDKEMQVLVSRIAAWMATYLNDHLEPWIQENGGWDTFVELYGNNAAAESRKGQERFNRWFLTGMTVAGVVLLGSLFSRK

Chain of tBid (P55957 61-195): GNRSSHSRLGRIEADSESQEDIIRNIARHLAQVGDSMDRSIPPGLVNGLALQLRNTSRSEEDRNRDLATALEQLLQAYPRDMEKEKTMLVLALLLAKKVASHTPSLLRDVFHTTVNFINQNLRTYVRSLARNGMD
Chain of Bax (Q07812 whole entry): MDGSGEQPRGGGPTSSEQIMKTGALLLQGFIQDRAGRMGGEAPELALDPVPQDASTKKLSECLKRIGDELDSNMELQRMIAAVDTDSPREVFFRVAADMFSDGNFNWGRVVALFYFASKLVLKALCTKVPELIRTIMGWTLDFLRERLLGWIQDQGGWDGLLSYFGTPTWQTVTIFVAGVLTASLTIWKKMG

tBid (from UniProt P55957)
Kd [1]: 20 nM
Kd [2]: 1 nM
